The record followed here is article PMC6317994 (Cell reports, 2018).

For the test, the target named is T1, Flag-tagged N-terminal domain of TET2 (residues 1–1127) (human, UniProt Q6N021 1-1127).
T1 sequence: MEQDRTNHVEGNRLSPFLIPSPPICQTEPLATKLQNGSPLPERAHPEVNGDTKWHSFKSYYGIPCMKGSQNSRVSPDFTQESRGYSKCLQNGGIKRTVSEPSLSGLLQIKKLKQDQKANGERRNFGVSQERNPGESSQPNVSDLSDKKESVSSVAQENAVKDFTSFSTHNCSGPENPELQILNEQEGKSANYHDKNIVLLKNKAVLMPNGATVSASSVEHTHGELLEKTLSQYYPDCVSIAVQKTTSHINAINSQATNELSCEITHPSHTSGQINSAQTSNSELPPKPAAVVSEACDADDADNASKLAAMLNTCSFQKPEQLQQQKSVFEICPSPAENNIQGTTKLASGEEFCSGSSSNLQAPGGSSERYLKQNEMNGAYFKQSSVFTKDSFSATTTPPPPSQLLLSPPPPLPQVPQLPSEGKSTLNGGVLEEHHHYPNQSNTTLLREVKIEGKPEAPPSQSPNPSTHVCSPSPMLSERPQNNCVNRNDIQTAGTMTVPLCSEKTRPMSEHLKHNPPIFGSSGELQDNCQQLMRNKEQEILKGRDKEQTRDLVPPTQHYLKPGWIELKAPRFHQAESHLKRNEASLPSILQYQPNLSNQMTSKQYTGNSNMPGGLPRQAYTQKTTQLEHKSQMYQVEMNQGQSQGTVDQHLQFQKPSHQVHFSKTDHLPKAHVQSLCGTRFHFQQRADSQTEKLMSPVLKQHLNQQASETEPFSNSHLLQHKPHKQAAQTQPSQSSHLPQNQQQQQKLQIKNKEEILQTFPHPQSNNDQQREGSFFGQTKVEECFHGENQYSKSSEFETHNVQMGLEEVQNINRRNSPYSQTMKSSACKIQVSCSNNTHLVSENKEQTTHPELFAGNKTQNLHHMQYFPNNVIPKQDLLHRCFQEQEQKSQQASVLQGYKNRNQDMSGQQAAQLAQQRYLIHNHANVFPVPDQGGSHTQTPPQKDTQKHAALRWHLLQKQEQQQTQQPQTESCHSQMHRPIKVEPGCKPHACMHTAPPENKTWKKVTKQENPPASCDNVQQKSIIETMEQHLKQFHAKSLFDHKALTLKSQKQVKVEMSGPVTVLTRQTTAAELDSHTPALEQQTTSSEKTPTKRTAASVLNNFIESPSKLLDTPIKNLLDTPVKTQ
The test can be described thus: pull-down.

B1: SNIP1 purified from E. coli (GST tag removed) (natural protein)
chain: MKAVKSERERGSRRRHRDGDVVLPAGVVVKQERLSPEVAPPAHRRPDHSGGSPSPPTSEPARSGHRGNRARGVSRSPPKKKNKASGRRSKSPRSKRNRSPHHSTVKVKQEREDHPRRGREDRQHREPSEQEHRRARNSDRDRHRGHSHQRRTSNERPGSGQGQGRDRDTQNLQAQEEEREFYNARRREHRQRNDVGGGGSESQELVPRPGGNNKEKEVPAKEKPSFELSGALLEDTNTFRGVVIKYSEPPEARIPKKRWRLYPFKNDEVLPVMYIHRQSAYLLGRHRRIADIPIDHPSCSKQHAVFQYRLVEYTRADGTVGRRVKPYIIDLGSGNGTFLNNKRIEPQRYYELKEKDVLKFGFSSREYVLLHESSDTSEIDRKDDEDEEEEEEVSDS
As to B1, the binding result is given as “binds”.
